Measured values: article PMC11211670 (mLife, 2024)

B1: Escherichia coli CTP synthase (cytidine triphosphate synthase) (enzyme, UniProt P0A7E5 1-545, looked up)
chain: MTTNYIFVTGGVVSSLGKGIAAASLAAILEARGLNVTIMKLDPYINVDPGTMSPIQHGEVFVTEDGAETDLDLGHYERFIRTKMSRRNNFTTGRIYSDVLRKERRGDYLGATVQVIPHITNAIKERVLEGGEGHDVVLVEIGGTVGDIESLPFLEAIRQMAVEIGREHTLFMHLTLVPYMAASGEVKTKPTQHSVKELLSIGIQPDILICRSDRAVPANERAKIALFCNVPEKAVISLKDVDSIYKIPGLLKSQGLDDYICKRFSLNCPEANLSEWEQVIFEEANPVSEVTIGMVGKYIELPDAYKSVIEALKHGGLKNRVSVNIKLIDSQDVETRGVEILKGLDAILVPGGFGYRGVEGMITTARFARENNIPYLGICLGMQVALIDYARHVANMENANSTEFVPDCKYPVVALITEWRDENGNVEVRSEKSDLGGTMRLGAQQCQLVDDSLVRQLYNAPTIVERHRHRYEVNNMLLKQIEDAGLRVAGRSGDDQLVEIIEVPNHPWFVACQFHPEFTSTPRDGHPLFAGFVKAASEFQKRQAK
notes: CTP synthase of Escherichia coli, full-length gene in pET28a; In the cryo-EM sample it forms tetramers that stack into filaments; also called ecCTPS; wild-type ecCTPS; source: E. coli Transetta (DE3), purified (Ni-Agarose, Superose 6 Increase)
B2: ecCTPS with an inserted hCTPS helix 12 (ecCTPS^helix12+) (enzyme, Escherichia coli | human)
chain: MTTNYIFVTGGVVSSLGKGIAAASLAAILEARGLNVTIMKLDPYINVDPGTMSPIQHGEVFVTEDGAETDLDLGHYERFIRTKMSRRNNFTTGRIYSDVLRKERRGDYLGATVQVIPHITNAIKERVLEGGEGHDVVLVEIGGTVGDIESLPFLEAIRQMAVEIGREHTLFMHLTLVPYMAASGEVKTKPTQHSVKELLSIGIQPDILICRSDRAVPANERAKIALFCNVPEKAVISLKDVDSIYKIPGLLKSQGLDDYICKRFSLNCPEANLSEWEQVIFEEANPVSEVTIGMVGKYIELPDAYKSVIEALKHGGLKNRVSVNIKLIDSQDVETRGVEEEPVRYHEAWQILKGLDAILVPGGFGYRGVEGMITTARFARENNIPYLGICLGMQVALIDYARHVANMENANSTEFVPDCKYPVVALITEWRDENGNVEVRSEKSDLGGTMRLGAQQCQLVDDSLVRQLYNAPTIVERHRHRYEVNNMLLKQIEDAGLRVAGRSGDDQLVEIIEVPNHPWFVACQFHPEFTSTPRDGHPLFAGFVKAASEFQKRQAK
notes: E. coli CTP synthase, the stretch before the insertion; Helix 12 of human CTPS1, inserted; H346 and W349 of the variant correspond to H355 and W358 of hCTPS1; E. coli CTP synthase, the stretch after the insertion; It ends with HHHHHH, which is written here as the tag; also called engineered ecCTPS

How the values were obtained:
[1] = target: the molecule itself; experiment: cryo-EM structure; 7 uM ecCTPS incubated with 0.58 mM DON, 1 mM CTP, 0.5 mM NADH and 10 mM MgCl2 for 30 min at 0 °C; single particle analysis of filaments, D2 symmetry, mask on the central tetramer
[2] = target: the molecule itself; experiment: cryo-electron micrographs of filaments; purified ecCTPS^helix12+ in the product state (CTP); filaments seen in cryo samples

Row | Protein | stoichiometry N [1] | binding result [2]
1 | B1 | 4 | 
2 | B2 |  | binds
